# “And” between values parts separate entries of the source, which are not always exact repeats. Equal values may be shown once.
# Molecular target: the molecule itself
# Assay: SDS-PAGE (SDS-resistant oligomers); increasing concentrations of purified His-BKPyV agnoprotein on SDS PAGE, probed with anti-agnoprotein or anti-His antibody; oligomerisation concentration dependent
protein,measurement,value
"recombinant 10xHis BKPyV agnoprotein (natural protein, agnoprotein of BK polyomavirus, DNA codon optimised for E. coli, amplified with primers from the ATG to the stop codon and cloned into pET19b (KpnI/BamHI); also called 10xHis BK agnoprotein; recombinant agnoprotein; source: E. coli DE3 gold, purified (NiNTA, HiTrap SP ion exchange, C4 solid phase extraction; dissolved in DMSO); not shown: His10, N-terminal, kept) MVLRQLSRQASVKVGKTWTGTKKRAQRIFIFILELLLEFCRGEDSVDGKNKSTTALPAVKDSVKDS",stoichiometry N,2 and 4 and 5

# Source: article doi:10.1101/2023.01.30.526200, “The virus-encoded ion channel “viroporin” activity of the agnoprotein is required for BK Polyomavirus release from infected kidney cells” (bioRxiv, 2023)
